Laboratory results as given in paper PMC11890025.

Test system: SaAREB6-His (Santalum album)
Experiment: MST
Settings: MST: 20 nM labelled SaAREB6, 150 mM NaCl, 20 mM Tris-HCl pH 8.0, 25 C; EMSA: LightShift Chemiluminescent kit, buffer not stated

SaCYP736A167 promoter R1 (MST) was tested, and the Kd was 4.81 µM.

SaCYP736A167 promoter R2 (MST) was tested, and the Kd was 24.8 µM.
